Measured values: the supplement of paper PMC9112550, “Optimization of the antimicrobial peptide Bac7 by deep mutational scanning” (BMC Biology, 2022)

Tested on: Escherichia coli TOP10
Assay: shrunken log2 fold change of peptide-encoding DNA abundance (4.5 h post-induction vs induction); higher = less antimicrobial activity (less host growth inhibition)
Settings: time post-induction: 4.5 h; library: site-saturation at positions 5, 18, 19, 20
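Further: peptides expressed intracellularly from a pBAD plasmid library in pooled LB shake-flask culture, induced with 0.3% L-arabinose, DNA abundance read by NGS, three biological replicates, DESeq2 with apeglm shrinkage.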

In the case of RRIRKRPPRLPRPRPRPDLKPRP, the “shrunken log2 fold change” value is reported as 0.131.

With RRIRKRPPRLPRPRPRPDLVPRP the “shrunken log2 fold change” value was 0.662.

In the case of RRIRKRPPRLPRPRPRPDMAPRP, the “shrunken log2 fold change” value is reported as 0.0491.

In the case of RRIRKRPPRLPRPRPRPDNMPRP, the “shrunken log2 fold change” value is reported as 0.107.

For RRIRKRPPRLPRPRPRPDPCPRP, the “shrunken log2 fold change” value was 0.312.

For RRIRKRPPRLPRPRPRPDRWPRP, the “shrunken log2 fold change” value was 0.683.

With RRIRKRPPRLPRPRPRPDSDPRP the “shrunken log2 fold change” value was 0.123.

With RRIRKRPPRLPRPRPRPDSNPRP the “shrunken log2 fold change” value was 0.0348.

With RRIRKRPPRLPRPRPRPDTLPRP the “shrunken log2 fold change” value was 0.0227.

With RRIRKRPPRLPRPRPRPDVDPRP the “shrunken log2 fold change” value was 1.8.

RRIRKRPPRLPRPRPRPDVQPRP was tested, and the “shrunken log2 fold change” value was -0.00299.

In the case of RRIRKRPPRLPRPRPRPDYNPRP, the “shrunken log2 fold change” value is reported as -0.0745.

For RRIRKRPPRLPRPRPRPEAIPRP, the “shrunken log2 fold change” value was 0.101.

In the case of RRIRKRPPRLPRPRPRPECAPRP, the “shrunken log2 fold change” value is reported as 0.339.

With RRIRKRPPRLPRPRPRPECIPRP the “shrunken log2 fold change” value was 0.0177.

In the case of RRIRKRPPRLPRPRPRPECKPRP, the “shrunken log2 fold change” value is reported as 0.506.

With RRIRKRPPRLPRPRPRPEDDPRP the “shrunken log2 fold change” value was 0.00862.

RRIRKRPPRLPRPRPRPEDFPRP was tested, and the “shrunken log2 fold change” value was 0.24.

For RRIRKRPPRLPRPRPRPEDHPRP, the “shrunken log2 fold change” value was 0.247.

For RRIRKRPPRLPRPRPRPEDKPRP, the “shrunken log2 fold change” value was 0.0421.

RRIRKRPPRLPRPRPRPEFYPRP was tested, and the “shrunken log2 fold change” value was -0.0131.

In the case of RRIRKRPPRLPRPRPRPEHEPRP, the “shrunken log2 fold change” value is reported as 1.09.

With RRIRKRPPRLPRPRPRPEHHPRP the “shrunken log2 fold change” value was -0.0888.

With RRIRKRPPRLPRPRPRPEIKPRP the “shrunken log2 fold change” value was 0.977.

In the case of RRIRKRPPRLPRPRPRPEIMPRP, the “shrunken log2 fold change” value is reported as 1.31.

For RRIRKRPPRLPRPRPRPEIRPRP, the “shrunken log2 fold change” value was 0.171.

RRIRKRPPRLPRPRPRPEKEPRP was tested, and the “shrunken log2 fold change” value was 0.139.

For RRIRKRPPRLPRPRPRPEKMPRP, the “shrunken log2 fold change” value was -0.0217.

In the case of RRIRKRPPRLPRPRPRPELGPRP, the “shrunken log2 fold change” value is reported as 0.823.

In the case of RRIRKRPPRLPRPRPRPEMHPRP, the “shrunken log2 fold change” value is reported as 0.0496.

For RRIRKRPPRLPRPRPRPENHPRP, the “shrunken log2 fold change” value was -0.229.

With RRIRKRPPRLPRPRPRPEPWPRP the “shrunken log2 fold change” value was 0.895.

With RRIRKRPPRLPRPRPRPEQTPRP the “shrunken log2 fold change” value was 1.15.

For RRIRKRPPRLPRPRPRPEQWPRP, the “shrunken log2 fold change” value was -0.0362.

For RRIRKRPPRLPRPRPRPERSPRP, the “shrunken log2 fold change” value was 0.245.

With RRIRKRPPRLPRPRPRPETCPRP the “shrunken log2 fold change” value was 0.0906.

With RRIRKRPPRLPRPRPRPEVAPRP the “shrunken log2 fold change” value was 1.9.

For RRIRKRPPRLPRPRPRPEVRPRP, the “shrunken log2 fold change” value was 1.86.

For RRIRKRPPRLPRPRPRPEVTPRP, the “shrunken log2 fold change” value was -0.0421.

With RRIRKRPPRLPRPRPRPEVYPRP the “shrunken log2 fold change” value was -0.0138.

RRIRKRPPRLPRPRPRPEWMPRP was tested, and the “shrunken log2 fold change” value was -0.0537.

RRIRKRPPRLPRPRPRPEYPPRP was tested, and the “shrunken log2 fold change” value was 0.0134.

In the case of RRIRKRPPRLPRPRPRPEYQPRP, the “shrunken log2 fold change” value is reported as 0.0313.

With RRIRKRPPRLPRPRPRPFAGPRP the “shrunken log2 fold change” value was 0.191.

With RRIRKRPPRLPRPRPRPFAWPRP the “shrunken log2 fold change” value was 0.462.

In the case of RRIRKRPPRLPRPRPRPFCTPRP, the “shrunken log2 fold change” value is reported as -0.0968.

With RRIRKRPPRLPRPRPRPFCWPRP the “shrunken log2 fold change” value was 0.48.

With RRIRKRPPRLPRPRPRPFDHPRP the “shrunken log2 fold change” value was 0.119.

With RRIRKRPPRLPRPRPRPFENPRP the “shrunken log2 fold change” value was 0.167.

With RRIRKRPPRLPRPRPRPFFSPRP the “shrunken log2 fold change” value was -0.0214.

For RRIRKRPPRLPRPRPRPFIVPRP, the “shrunken log2 fold change” value was -0.345.

With RRIRKRPPRLPRPRPRPFLCPRP the “shrunken log2 fold change” value was 0.158.

In the case of RRIRKRPPRLPRPRPRPFLEPRP, the “shrunken log2 fold change” value is reported as 0.194.

RRIRKRPPRLPRPRPRPFNFPRP was tested, and the “shrunken log2 fold change” value was -0.296.

RRIRKRPPRLPRPRPRPFNLPRP was tested, and the “shrunken log2 fold change” value was -0.0494.

RRIRKRPPRLPRPRPRPFNNPRP was tested, and the “shrunken log2 fold change” value was -0.0235.

For RRIRKRPPRLPRPRPRPFNYPRP, the “shrunken log2 fold change” value was -0.463.

For RRIRKRPPRLPRPRPRPFPAPRP, the “shrunken log2 fold change” value was 0.341.

In the case of RRIRKRPPRLPRPRPRPFPCPRP, the “shrunken log2 fold change” value is reported as 0.0314.

RRIRKRPPRLPRPRPRPFPHPRP was tested, and the “shrunken log2 fold change” value was -0.04.
